Assay: soluble on expression in E. coli; label from the status in PepcDB or PDB records
With “MELGKQRPVVYVVSDSVGETAELVVKAAASQFSGAGIEVRRIPYVEDKETVDEVIQLAKQADAIIAFTLVVPGIRTYLLEKATEAKVETVDIIGPMLEKISSLTKEEPRYEPGIVYRLDEDYFRKVEAIEFAVKYDDGRDPRGIVRADLVLIGVSRTSKTPLSQYLAHKRLKVANVPLVPEVEPPEELFKLSPKKVIGLKISPEQLNGIRAERLKTLGLKSQANYANIDRIKEELAYAEGIMKRIGCPVIDVSNKAVEETANLISSMFQKMAGDPLEHHHHHH” the “soluble on expression in E. coli” value was “soluble”. In the case of “STPSIVIASAARTAVGSFNGAFANTPAHELGATVISAVLERAGVAAGEVNEVILGQVLPAGEGQNPARQAAMKAGVPQEATAWGMNQLCGSGLRAVALGMQQIATGDASIIVAGGMESMSMAPHCAHLRGGVKMGDFKMIDTMIKDGLTDAFYGYHMGTTAENVAKQWQLSRDEQDAFAVASQNKAEAAQKDGRFKDEIVPFIVKGRKGDITVDADEYIRHGATLDSMAKLRPAFDKEGTVTAGNASGLNDGAAAALLMSEAEASRRGIQPLGRIVSWATVGVDPKVMGTGPIPASRKALERAGWKIGDLDLVEAAEAFAAQACAVNKDLGWDPSIVNVNGGAIAIGHPIGASGARILNTLLFEMKRRGARKGLATLCIGGGMGVAMCIESL”, the “soluble on expression in E. coli” value is reported as “soluble”. In the case of “MGSDKIHHHHHHMRYSPESLLAFITTVDAGSFSAAARRLHKSQSTISAAIANLEADLGLTLFDRAGHQPVLTLAGRKVLSHVQAILSASEELDELAIRLADHIEPRLTFVLSDIWQATHYEPVIQRFAHNFPDIEFECLVAEGDDVIDLLQMDRAHVGLLRAQTDYPPDIAAARLQVKTEMAVFVSVAHPLATEKTVTRSQLATVRQLYLNTYKRSDRLQPEGIVWSAPSYLMLLEMAQQGHGWSSLPRWLVAQYDRQKLVELPVSGWPQWIDVDVVWSKPHPPGPAGLWMIDNLLAQQESTPP”, the “soluble on expression in E. coli” value is reported as “not soluble”. In the case of “MGSDKIHHHHHHMNPQTRKRQNLTAVYAALLQLMSQKPLSRISITELCQHAQVSRTYFYRNFANFDQIILAYQKQTILQYLRQLPRQSKVKLQVLMTQYFTLMQQMAATNALLIKNEKTQIFIQSFEAVFALLIKQDRIIGSSNTALRQPYYTAYFSGAVINMLVHWQQNGMVETPAYLAQQVTRFTLRDNESRS”, the “soluble on expression in E. coli” value is reported as “not soluble”. For “MGHHHHHHSHMKTRQAFYLHTTKLTRIARRLCREILRPWHAARHPYLPINSAAIKAECTARLPEASQSPLVLKQAVRKPLEAVLRYLETHPRPPKPDPVKSVSSVLSSLTPAKVAPVINNGSPTILGKRSYEQHNGVDGNMKKRLLMPSRGLANHGQTRHMGPSRNLLLNGKSYPTKVRLIRGGSLPPVKRRRMNWIDAPDDVFYMATEETRKIRKLLSSSETKRAARRPYKPIALRQSQALPPRPPPPAPVNDEPIVIED”, the “soluble on expression in E. coli” value was “soluble”. For “MSVTVFIPGDSAALAVGANRVAEAIAREAASRNLDVQIVRNGSRGMLWLEVLVEVRTEHGRIAYGPVKAADVTSLFDADFLDGGDHRLCLGPTKDIPFLKNQTRLTFARCGVTDPLSLEDYRNYQGMKGLEKAVTMEPLAIVAQVTESGLRGRGGAGFPTGIKWKTVADARADQKYIVCNADEGDSGTFADRMIMEGDPFVLIEGMAIAGLAVGATKGFIYTRSEYPYAIKVMEKAIEIARREGILGSSVLGSGRAFDMEVRMGAGAYVCGEETSLLNSLEGKRGTVRAKPPLPALQGLFGKPTVVNNVISLASIPVIMDRGAAFYRDFGVGRSHGTIPIQLAGNIRYGGLYETAFGLTLGQLVNDIGGGTITGRPVKAVQVGGPLGAYFPVSLFDTIFDYEAFTAAGGLIGHAGIVVFDDTADMLHQARFALEFCAVESCGKCTPCRIGSTRGVETVDKIALGIEREKNTALLEDLCETMKFGSLCALGGFTPYPVMSALRHFPQDFAPIPRVEAAEAAALEHHHHHH”, the “soluble on expression in E. coli” value was “not soluble”. In the case of “MLTPPPDSKISTTDKSLDKLSAPLDMLKQMNESTMEQTKLDELRKKMSLQAEILNKAKADNDMFFRLLIELMSLKLQGELFKEQLSKISKESGYDSAQSALIQATNSEGQSPLQYALQKQDFSTAKYFLDNGAKAGPIEKAVFEIALDSKAAKEFGFPPLPPEKEKLHPVKNFGLVLGIKTTSVDGTPSQFGHIAPTYQLMTDSVSHFAKSHPGNKNFQEIANAFQFSNEASAFKFSTPQRNPEAGNDLARRIQGGELTTIPVSCKGHAMGLSYVPDGPGSKSGYLVYTNRGLGAKSSEHGTHIFRIEDSSKITPEFINNMTSGHSNGASHDEIMSQIKAAAGNKEPIHHIKQKGQKNDNCTIANSKSNIEGILLCQKAREVGGFDKLTESDMDSVKKEYKEFTKHMRVEKVNELAKALKENPQDPDLNNLTKEYLKQHPNADPKLKQTLETALKQASESSMTLSQPGKTI”, the “soluble on expression in E. coli” value is reported as “not soluble”. With “MSSPRHVFYISDRTGLTAENIGEALLNQFGNLSFKRHTHPFVDTPEKARAVVEKVNRSRQENGQRPIAFVSVVDDEIRRIIKGADAFQINFFETFLGLLEKELNTEATASEQGHHSIGNTKRYDARMEAVNFSLNHDDGVSDKNLQEADVILMGVSRSGKTPTCLYLALQYGIRAANYPLIPDDLESADLPRMVKPYRDKLFGLTIQPERLQAIRQERRPNSTYAKIDTCRSEVADAQSMFRRHGIPFANTTDKSVEELAVHILQACKLKRRFLEHHHHHH” the “soluble on expression in E. coli” value was “soluble”. With “MFRQLSELYISTLKEAKERSPPNFDDTPRGLLLALIKDRPTIWNSSARLTKDDVLASFQQCSAILSNMDPGYSIWAVIEKWCWVVESYVRCSVTAPPSEWRYNNTLDYLKQFATTSYPYLGCLSKKRRNELTKLYNDPEINVVMQKTEEIEFPVGIFRDEMLYLSGEDHLMQYDLELRTVGQVVNAKRRGRPSKVDKRSPVDNFYNLTPQSAQFQKLLESNMSSAFSIAFAESELIPDDLGFSPAMYMALIDMIQDKPELWQSNHPQKDNLQAQEQLFEDFGKQLIIKFRDTADISVLEKLTGPYVHLVWERLLEKFKEEDSLETVSKWKYYQVGSAGLSARLAIASPSGSSQSEDSRMAASSPSTAFIGMPTTINGNKSIQTVLDNLIAARSKKEDHAASTTSVLQAPNYSELKQMLEKNNILKVDNENGPPLKRVKQEIESPPGSSRMIVYNDTRKTTNAPISTWVPPREDLTAKVKDETVQSVPQRKAQATAVIKSGFPLEKHLKKQAVPSMIPVTSSSIPQRNGILGLNSMILPPSAIQQALLKKMDVPTTTPSMSSTSSSQAQSSMNGVINGNNTEVEDKWTLLGRMIAMMAREIETRDPMSACELTRDLQQVIFQYNMKTLRPKENNSSSSSQ” the “soluble on expression in E. coli” value was “not soluble”. In the case of “LRIEPVHDVEHSATVRDLEHIVAESRDAGELPRELSTLLGRILDFPTRTAGHAMIPRAHVDTVRAHDSLSSVLEKMGAGHTRYPVVGSSSDDLRGVIHLHDLLGEQSDGPAASRARPAVVVPSSLPLPDVLEQLTAARDEMALVVDEYGGFAGVITIEDLAEELVGEIA”, the “soluble on expression in E. coli” value is reported as “not soluble”. In the case of “MSIYEFDSEEEYATFVNWIEAKKPSITDCSIETFNDDLEDFDRLDEDGLYIEYTRVLLDNLNVTKSMDLMIPTHSSFEFSQDFHLDAVRLRSCFGRNNLFNFHCKEIEVSDSEISSENVNQYLRAWAAGCYNELEKLEVLFYGNENKFDWKPLLQGLNRKRTIYEHNIIDPEVTDETTEVKIETEHPGEFDYYYYKWAKIHRKVDSEGNFYMGMIVN”, the “soluble on expression in E. coli” value is reported as “not soluble”. In the case of “MKQWIAALLLMLIPGVQAAKPQKVTLMVDDVPVAQVLQALAEQEKLNLVVSPDVSGTVSLHLTDVPWKQALQTVVKSAGLITRQEGNILSVHSIAWQNDNIARQEAEQARAQANLPLENRSITLQYADAGELAKAGEKLLSAKGSMTVDKRTNRLLLRDNKTALSALEQWVAQMDLPVGQVELSAHIVTINEKSLRELGVKWTLADAQHAGGVGQVTTLGSDLSVATATTHVGFNIGRINGRLLDLELSALEQKQQLDIIASPRLLASHLQPASIKQESEIPYQVSSGESGATSVEFKEAVLGMEVTPTVLQKGRIRLKLHISQNVPGQVLQQADGEVLAIDKQEIETQVEVKSGETLALGGIFTRKNKSGQDSVPLLGDIPWFGQLFRHDGKEDERRELVVFITPRLVSSELEHHHHHH”, the “soluble on expression in E. coli” value is reported as “not soluble”. For “MNYAGSEKRVAIEEKKKIVEFLWKRNEEQEIVGHIYIGRIVRTIAGMNAAFVNIGLEKHAYLSYDDVPSAYRIHEGQAVLVQVVKEAIDTKGPKLTANIEFTGKYVVYMPYDEMRAVSRKIKNNKRRQQLLQIEVEGTGGYIFRSASEKGEIEEIQAEMQRLQQLYEELKRKEEQGKAPLLLHRPATFLDRVFQENPIETIEKVVVDTRSIVKELEEKVGKEKVSFYNEKSSMFNHFGIEREIEKALQKIVWLPNGAYLIVEQMETMTVIDVNTGKFTGKQNLQDTVLRTNELAAEEIARQLRLRDIGGMILIDFINMKRREDKEKVRECLVAAMQNDRTYTRVLGFTELGILEMTRKRKKHSLRDVLLEECAPCKATGYVMSYETIAYELERELLTYGNIEDEAVLISAPKELQKQFLQKELQKNIPFEIYFKDDMIEKYAIIRFGSKKEIVERKNS”, the “soluble on expression in E. coli” value was “not soluble”. For “MEPWLVGIDLGGTTIKMAFVTTEGDIVHKWEIPTNTANRGEHIVADIARSLEKTLGQLGGAKERLLAAGIGAPGPVEEETGMLYETVNIGWTNYPLKQRLEEATGLPVSVDNDANLAALGEMWKGAGGGARHLLFVTLGTGVGGGVIANGAIVRGINGAGGEIGHMTMIPDGGARCNCGKTGCLETIASATGIVRIAKEKLTADERPSELRNGDVTAKAVFDAAKAGDALALEVVDEATYYLGWALANAANVTNPEKIVIGGGVSKAGDMLVERVAAHFRRFAFPRVAAGAKLVLATLGNDAGVIGAAWLAKELVGA”, the “soluble on expression in E. coli” value was “not soluble”. In the case of “MGSDKIHHHHHHVGCMKWDYGKMEPFRATGDGLFIMNEGNFQYGNATLSYYDPETKKVENEIFYRANAMKLGDVAQSMIVRDTIGWVVVNNSHVIFAISTNTFKEVGRITGLTSPRYIHFISDEKAYITQIWDYRIFIVNPKTYQITGYIECPDMTMETGSTEQMVQYGKYVYVNCWSYQNRILKIDTTTDKVVDQLTVGIQPTSLVMDKNFKMWTITDGGYKGSPYGYEEPSLYRIDAETFKIEKQFKFQLGDAPSEVQLNGAGDELYWINKDIWRMSVDEERVPVRPFLKYRDTKYYGLTVSPKNGDVYVADAIDYQQQGMIYRYTEDGELVDEFYVGIIPGAFCWK”, the “soluble on expression in E. coli” value is reported as “not soluble”. For “MISCSEEGSNKILVAISLDRDESQNVLSWAINVLAKPSDTVVALHLLVGEEPRKLPMKKKKRTQIRHAKAHVISMLGEFAYTCCHNQVNLEAKVGFSSNIGRGLIDEVKSISAHYLVLSRPTTHEFR”, the “soluble on expression in E. coli” value was “soluble”. With “MRNEEKRALRRELRGRRSQMGRDVRAAATVKINHLLKRYIKKGRKIGVYWPMGKELRLDGFVRAAQKRGAELYLPYIEPRSRRMWFTPYPADGVKQERKRGRAKLHVPQFAGRKKRVHDLNLLLVPVVGMDRLGYRLGQAGGYYDATLSAMKYRLQAKTVGVGFACQLVDRLPVEAHDRSLDGFVSEAGILCF” the “soluble on expression in E. coli” value was “not soluble”. With “MIREDEVRKLVGEMREPFLQRPLGELDAVKEIKIKPEKRHISVKVALAKTGTAEQMQIQQEIVNVLKGAGAETVGLRFEELPEETVAKFRAPSAEKKTLLNMDNPPVFLAVASGKGGVGKSTVSVNLAISLARLGKKVGLIDADIYGFSVPDMMGITVRPTIEGEKLLPVERFGVKVMSMGFFVEENAPVVWRGPMLGKMLNNFFHEVEWGEVDYIVLDLPPGTGDVALDVHTMLPSCKEIIVSTPHPTAAFVAARAGSMAIKTDHEVVGVIENMAYYESAKTGEREYVFGKGGGDKLAEELNVPLLGRIPLKQPDWDKDQFAPSVYDENHPIGEIYQDIAKKIDAKMSVQVLEHHHHHH” the “soluble on expression in E. coli” value was “soluble”. In the case of “MGSDKIHHHHHHMDTQRIKDDEDAIRSALTSLKTATGIPVTMFATVLQDNRLQITQWVGLRTPALQNLVIEPGVGVGGRVVATRRPVGVSDYTRANVISHEKDSAIQDEGLHSIVAVPVIVHREIRGVLYVGVHSAVRLGDTVIEEVTMTARTLEQNLAINSALRRNGVPDGRGSLKANRVMNGAEWEQVRSTHSKLRMLANRVTDEDLRRDLEELCDQMVTPVRIKQTTKLSARELDVLACVALGHTNVEAAEEMGIGAETVKSYLRSVMRKLGAHTRYEAVNAARRIGALP”, the “soluble on expression in E. coli” value is reported as “not soluble”.

— the DeepSol protein solubility set
